The supplement of paper PMC6757056
± gives the standard deviation of the averaged measurements.

B1: library; a variant is named by its letters at N, in order (parent)
chain: GCUGUCACCGAGAAACUGUGAAGUAUAUCUUAAACCUGGGCACUUAAAAGAUAUAUGGAGUUAGUAGUGCAACCUGCUCGGUCUGAUGAGUCCNNNNNNGGACGAAACAGC

Columns and labels:
cyclic di-GMP [1] = variants of: B1; experiment: normalized RNA/DNA level without ligand (relative to sTRSVctl = 100) (log10 (% of sTRSVctl)); HEK293T; ligand: cyclic di-GMP (c-di-GMP-II aptamer); higher = less ribozyme self-cleavage, higher mRNA level; details: reporter: mCherry (pCS4076), ligand present: no
In short: (§1)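 Ribozyme switch library plasmids linked to reporters were introduced into HEK293T cells at 4 µg per 6-well well, with ligand, if any, added 1 h before. Total RNA was extracted with EDTA 72 h later, reverse-transcribed, amplified, barcoded and sequenced. RNA level was computed from RNA over DNA reads relative to a spiked-in non-cleaving sequence or the top sequences, then scaled and log-transformed. The top set was 25 sequences, values were ×100 and log10, and the cutoff was ≥100 DNA reads.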

cyclic di-GMP [2] = variants of: B1; experiment: normalized RNA/DNA level with ligand (relative to sTRSVctl = 100) (log10 (% of sTRSVctl)); HEK293T; ligand: cyclic di-GMP (c-di-GMP-II aptamer); ligand concentration (+) RNA-Seq: 1 mM; higher = less ribozyme self-cleavage, higher mRNA level; details: reporter: mCherry (pCS4076), ligand present: yes
In short: as §1

Variant | normalized RNA/DNA level without ligand (log10) (cyclic di-GMP [1]) | normalized RNA/DNA level with ligand (log10) (cyclic di-GMP [2])
GCUGUCACCGAGAAACUGUGAAGUAUAUCUUAAACCUGGGCACUUAAAAGAUAUAUGGAGUUAGUAGUGCAACCUGCUCGGUCUGAUGAGUCCUACGAGGGACGAAACAGC | 1.674 ± 0.0019 | 1.82 ± 0.1
GCUGUCACCGAGAAACUGUGAAGUAUAUCUUAAACCUGGGCACUUAAAAGAUAUAUGGAGUUAGUAGUGCAACCUGCUCGGUCUGAUGAGUCCUACGACGGACGAAACAGC | 1.67 ± 0.017 | 1.82 ± 0.11
GCUGUCACCGAGAAACUGUGAAGUAUAUCUUAAACCUGGGCACUUAAAAGAUAUAUGGAGUUAGUAGUGCAACCUGCUCGGUCUGAUGAGUCCAACCGUGGACGAAACAGC | 1.54 ± 0.056 | 1.74 ± 0.091
GCUGUCACCGAGAAACUGUGAAGUAUAUCUUAAACCUGGGCACUUAAAAGAUAUAUGGAGUUAGUAGUGCAACCUGCUCGGUCUGAUGAGUCCCACGAGGGACGAAACAGC | 1.63 ± 0.028 | 1.81 ± 0.076
GCUGUCACCGAGAAACUGUGAAGUAUAUCUUAAACCUGGGCACUUAAAAGAUAUAUGGAGUUAGUAGUGCAACCUGCUCGGUCUGAUGAGUCCCACGAUGGACGAAACAGC | 1.68 ± 0.032 | 1.83 ± 0.089
GCUGUCACCGAGAAACUGUGAAGUAUAUCUUAAACCUGGGCACUUAAAAGAUAUAUGGAGUUAGUAGUGCAACCUGCUCGGUCUGAUGAGUCCCACGACGGACGAAACAGC | 1.67 ± 0.053 | 1.83 ± 0.13
GCUGUCACCGAGAAACUGUGAAGUAUAUCUUAAACCUGGGCACUUAAAAGAUAUAUGGAGUUAGUAGUGCAACCUGCUCGGUCUGAUGAGUCCGACCGUGGACGAAACAGC | 1.74 ± 0.066 | 1.86 ± 0.03
GCUGUCACCGAGAAACUGUGAAGUAUAUCUUAAACCUGGGCACUUAAAAGAUAUAUGGAGUUAGUAGUGCAACCUGCUCGGUCUGAUGAGUCCGACGAGGGACGAAACAGC | 1.56 ± 0.091 | 1.71 ± 0.071
GCUGUCACCGAGAAACUGUGAAGUAUAUCUUAAACCUGGGCACUUAAAAGAUAUAUGGAGUUAGUAGUGCAACCUGCUCGGUCUGAUGAGUCCGACGACGGACGAAACAGC | 1.608 ± 0.0074 | 1.78 ± 0.13
GCUGUCACCGAGAAACUGUGAAGUAUAUCUUAAACCUGGGCACUUAAAAGAUAUAUGGAGUUAGUAGUGCAACCUGCUCGGUCUGAUGAGUCCAACCUCGGACGAAACAGC | 1.757 ± 0.0019 | 1.85 ± 0.058
GCUGUCACCGAGAAACUGUGAAGUAUAUCUUAAACCUGGGCACUUAAAAGAUAUAUGGAGUUAGUAGUGCAACCUGCUCGGUCUGAUGAGUCCAACCUAGGACGAAACAGC | 1.51 ± 0.041 | 1.71 ± 0.13
GCUGUCACCGAGAAACUGUGAAGUAUAUCUUAAACCUGGGCACUUAAAAGAUAUAUGGAGUUAGUAGUGCAACCUGCUCGGUCUGAUGAGUCCAACCUGGGACGAAACAGC | 1.57 ± 0.029 | 1.73 ± 0.092
GCUGUCACCGAGAAACUGUGAAGUAUAUCUUAAACCUGGGCACUUAAAAGAUAUAUGGAGUUAGUAGUGCAACCUGCUCGGUCUGAUGAGUCCUACCGUGGACGAAACAGC | 1.59 ± 0.027 | 1.75 ± 0.1
GCUGUCACCGAGAAACUGUGAAGUAUAUCUUAAACCUGGGCACUUAAAAGAUAUAUGGAGUUAGUAGUGCAACCUGCUCGGUCUGAUGAGUCCUACCGGGGACGAAACAGC | 1.68 ± 0.025 | 1.87 ± 0.11
GCUGUCACCGAGAAACUGUGAAGUAUAUCUUAAACCUGGGCACUUAAAAGAUAUAUGGAGUUAGUAGUGCAACCUGCUCGGUCUGAUGAGUCCAACGACGGACGAAACAGC | 1.6 ± 0.04 | 1.79 ± 0.12
GCUGUCACCGAGAAACUGUGAAGUAUAUCUUAAACCUGGGCACUUAAAAGAUAUAUGGAGUUAGUAGUGCAACCUGCUCGGUCUGAUGAGUCCAACGAAGGACGAAACAGC | 1.38 ± 0.059 | 1.59 ± 0.16
GCUGUCACCGAGAAACUGUGAAGUAUAUCUUAAACCUGGGCACUUAAAAGAUAUAUGGAGUUAGUAGUGCAACCUGCUCGGUCUGAUGAGUCCGACCUUGGACGAAACAGC | 1.69 ± 0.0029 | 1.86 ± 0.13
GCUGUCACCGAGAAACUGUGAAGUAUAUCUUAAACCUGGGCACUUAAAAGAUAUAUGGAGUUAGUAGUGCAACCUGCUCGGUCUGAUGAGUCCGACCUCGGACGAAACAGC | 1.72 ± 0.047 | 1.86 ± 0.12
GCUGUCACCGAGAAACUGUGAAGUAUAUCUUAAACCUGGGCACUUAAAAGAUAUAUGGAGUUAGUAGUGCAACCUGCUCGGUCUGAUGAGUCCCACCGGGGACGAAACAGC | 1.754 ± 0.011 | 1.89 ± 0.12
GCUGUCACCGAGAAACUGUGAAGUAUAUCUUAAACCUGGGCACUUAAAAGAUAUAUGGAGUUAGUAGUGCAACCUGCUCGGUCUGAUGAGUCCCACCGUGGACGAAACAGC | 1.706 ± 0.0036 | 1.81 ± 0.092
GCUGUCACCGAGAAACUGUGAAGUAUAUCUUAAACCUGGGCACUUAAAAGAUAUAUGGAGUUAGUAGUGCAACCUGCUCGGUCUGAUGAGUCCCACCUCGGACGAAACAGC | 1.704 ± 0.014 | 1.87 ± 0.098
GCUGUCACCGAGAAACUGUGAAGUAUAUCUUAAACCUGGGCACUUAAAAGAUAUAUGGAGUUAGUAGUGCAACCUGCUCGGUCUGAUGAGUCCCACCUGGGACGAAACAGC | 1.76 ± 0.023 | 1.85 ± 0.06
GCUGUCACCGAGAAACUGUGAAGUAUAUCUUAAACCUGGGCACUUAAAAGAUAUAUGGAGUUAGUAGUGCAACCUGCUCGGUCUGAUGAGUCCUACCUAGGACGAAACAGC | 1.68 ± 0.018 | 1.82 ± 0.081
GCUGUCACCGAGAAACUGUGAAGUAUAUCUUAAACCUGGGCACUUAAAAGAUAUAUGGAGUUAGUAGUGCAACCUGCUCGGUCUGAUGAGUCCUACCUGGGACGAAACAGC | 1.724 ± 0.0039 | 1.87 ± 0.091
GCUGUCACCGAGAAACUGUGAAGUAUAUCUUAAACCUGGGCACUUAAAAGAUAUAUGGAGUUAGUAGUGCAACCUGCUCGGUCUGAUGAGUCCUACCUUGGACGAAACAGC | 1.637 ± 0.0055 | 1.82 ± 0.12
GCUGUCACCGAGAAACUGUGAAGUAUAUCUUAAACCUGGGCACUUAAAAGAUAUAUGGAGUUAGUAGUGCAACCUGCUCGGUCUGAUGAGUCCUACCUCGGACGAAACAGC | 1.79 ± 0.0062 | 1.93 ± 0.093
